Source: US20240101959A1, “USE OF IL-2R-BETA-GAMMA AGONIST PEPTIDES IN CELL MANUFACTURING” (MEDIKINE, INC., priority 2022, published 2024)
No end group written: not given here.

T1: hu-IL-2Rβ subunit (human, UniProt P14784 27-240, limits assumed)
T1 construct: also called human interleukin-2 receptor subunit β; CD122
T1 sequence (looked up): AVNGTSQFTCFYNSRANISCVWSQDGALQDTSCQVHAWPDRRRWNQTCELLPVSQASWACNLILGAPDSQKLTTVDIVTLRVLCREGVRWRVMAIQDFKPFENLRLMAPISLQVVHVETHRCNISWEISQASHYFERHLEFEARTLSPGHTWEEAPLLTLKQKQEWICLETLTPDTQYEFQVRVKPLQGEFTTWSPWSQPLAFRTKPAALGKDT

B1: SEQ ID NO 557 (peptide)
peptide: WPCWAALGELCDLD
B2: SEQ ID NO 545 (peptide)
peptide: EFFHDCYVARVGELCDLFGW
B3: SEQ ID NO 115 (peptide)
peptide: TRRWYPCYLAKLGELCDLFEGGTR
B4: SEQ ID NO 529 (peptide)
peptide: KWVHDCFLAKVGDVCDLFVV
B5: SEQ ID NO 526 (peptide)
peptide: QWFHNCFLARVGDTCDLFLW
B6: SEQ ID NO 549 (peptide)
peptide: YWCSVWQLGSVCEMNNEETQ
B7: SEQ ID NO 117 (peptide)
peptide: WYPCWVAQLGEICDLEMTGPDSWYP
B8: SEQ ID NO 532 (peptide)
peptide: AHFYDCFWAKAGELCDLWPS
B9: SEQ ID NO 544 (peptide)
peptide: YSFKDCYFAKVGELCELFLW
B10: SEQ ID NO 537 (peptide)
peptide: HGILDCYFAKVGELCELFDW
B11: SEQ ID NO 568 (peptide)
peptide: AFFHDCFFAKAGDLCDFFDD
B12: SEQ ID NO 82 (peptide)
peptide: WYPCYRARLGELCDLD
B13: SEQ ID NO 552 (peptide)
peptide: EFWGWQCWQEPLGWSCDLEWMD
B14: SEQ ID NO 556 (peptide)
peptide: VHDCFIAQVGDLCDLF
B15: SEQ ID NO 555 (peptide)
peptide: LVDCFKVKVGELCDLF
modifications: not fully specified (bridges); cysteine pairing not given here
B16: SEQ ID NO 114 (peptide)
peptide: QDRRSPWYPCWMAKLGELCDLA
B17: SEQ ID NO 573 (peptide)
peptide: HIFHDCFIAKVGDLCDLFHS
B18: SEQ ID NO 530 (peptide)
peptide: RSLVDCFLVKVGDLCDFFNW
B19: SEQ ID NO 547 (peptide)
peptide: WYTCMMDWLGVHCELE
B20: SEQ ID NO 548 (peptide)
peptide: QMVWWDCWSTQEGPVCELNWTA
B21: SEQ ID NO 571 (peptide)
peptide: EHFHDCFFAKVGDLCDIFGN
B22: SEQ ID NO 572 (peptide)
peptide: EHFHDCFFAKVGDLCDKFGQ
B23: SEQ ID NO 570 (peptide)
peptide: EGFHDCFFAKVGDLCDIFGH
B24: SEQ ID NO 551 (peptide)
peptide: DGSWYTCWFTQLGEWCEQDDAK
B25: SEQ ID NO 535 (peptide)
peptide: THVHDCFLAKVGDLCDLFIV
B26: SEQ ID NO 116 (peptide)
peptide: SEQWWPCWIARLGELCDLDRELSE
B27: SEQ ID NO 540 (peptide)
peptide: HWFLDCFLANVGDLCDFFGN
B28: SEQ ID NO 523 (peptide)
peptide: SWLSDLQDCYIAQVGDLCQI
B29: SEQ ID NO 531 (peptide)
peptide: RYLYDCFLALVGDLCVKFHQ
B30: SEQ ID NO 528 (peptide)
peptide: RYVHDCFIAQVGDLCDLFLH
B31: SEQ ID NO 525 (peptide)
peptide: RLLRDCFLAKVGDLCELFVW
B32: SEQ ID NO 527 (peptide)
peptide: ELLVDCFKVKVGELCDLFFG
B33: SEQ ID NO 546 (peptide)
peptide: SYLCWLDHWGVICEED
modifications: not fully specified (bridges); cysteine pairing not given here
B34: SEQ ID NO 550 (peptide)
peptide: WTCWLTQLGYDCNLDVVDQSLG
B35: SEQ ID NO 119 (peptide)
peptide: NRRWYPCWMAQLGELCDLDSRP
B36: SEQ ID NO 538 (peptide)
peptide: QFVKDCFLAQVGDLCELFLW
B37: SEQ ID NO 534 (peptide)
peptide: WGKLVRDCFLAKVGDLCDLFLW
B38: SEQ ID NO 560 (peptide)
peptide: WYPCWGELCDLD
B39: SEQ ID NO 543 (peptide)
peptide: NWFHDCFLARVGDLCDLFLD
B40: SEQ ID NO 559 (peptide)
peptide: WPCWLGELCDLD
B41: SEQ ID NO 558 (peptide)
peptide: WPCWALGELCDLD
B42: SEQ ID NO 524 (peptide)
peptide: RLASDWWDCYIAKVGELCDF
modifications: not fully specified (bridges); cysteine pairing not given here
B43: SEQ ID NO 539 (peptide)
peptide: DWLPDCYFANVGDLCSLFGS
B44: SEQ ID NO 536 (peptide)
peptide: HWVRDCFLAKVGELCDLFLW
B45: SEQ ID NO 541 (peptide)
peptide: NWLPDCLFANVGELCDIFPW
B46: SEQ ID NO 542 (peptide)
peptide: EIFKDCLFANVGELCEIFPS
B47: SEQ ID NO 569 (peptide)
peptide: DFFHDCFFAKVGDLCDFFFG
B48: SEQ ID NO 118 (peptide)
peptide: QDGWLPCWMAQLGELCDLEYKR

Target: T1, hu-IL-2Rβ subunit
Assay: phage ELISA competition assay

**Q.** How did the IC50 turn out when B1 was run?
**A.** Its IC50 is < 100 µM.

**Q.** For B2, which IC50 is on record?
**A.** Its IC50 is < 100 µM.

**Q.** B3 was tested. Which IC50 did it give?
**A.** Its IC50 is < 100 µM.

**Q.** How did the IC50 turn out when B4 was run?
**A.** Its IC50 is < 100 µM.

**Q.** With B5 as the binder, how does the IC50 read?
**A.** Its IC50 is < 100 µM.

**Q.** How did the IC50 turn out when B6 was run?
**A.** The IC50 was < 100 µM.

**Q.** Which IC50 does the source give for B7 here?
**A.** The IC50 was < 100 µM.

**Q.** With B8 as the binder, how does the IC50 read?
**A.** The IC50 was < 100 µM.

**Q.** B9 was tested. Which IC50 did it give?
**A.** Its IC50 is < 100 µM.

**Q.** How did the IC50 turn out when B10 was run?
**A.** Its IC50 is < 100 µM.

**Q.** For B11, which IC50 is on record?
**A.** The IC50 was < 100 µM.

**Q.** How did the IC50 turn out when B12 was run?
**A.** Its IC50 is < 100 µM.

**Q.** How did the IC50 turn out when B13 was run?
**A.** Its IC50 is < 100 µM.

**Q.** B14 was tested. Which IC50 did it give?
**A.** The IC50 was < 100 µM.

**Q.** How did the IC50 turn out when B15 was run?
**A.** The IC50 was < 100 µM.

**Q.** With B16 as the binder, how does the IC50 read?
**A.** Its IC50 is < 100 µM.

**Q.** B17 was tested. Which IC50 did it give?
**A.** The IC50 was < 100 µM.

**Q.** How did the IC50 turn out when B18 was run?
**A.** Its IC50 is < 100 µM.

**Q.** B19 was tested. Which IC50 did it give?
**A.** The IC50 was < 100 µM.

**Q.** With B20 as the binder, how does the IC50 read?
**A.** Its IC50 is < 100 µM.

**Q.** B21 was tested. Which IC50 did it give?
**A.** The IC50 was < 100 µM.

**Q.** For B22, which IC50 is on record?
**A.** The IC50 was < 100 µM.

**Q.** B23 was tested. Which IC50 did it give?
**A.** Its IC50 is < 100 µM.

**Q.** With B24 as the binder, how does the IC50 read?
**A.** Its IC50 is < 100 µM.

**Q.** How did the IC50 turn out when B25 was run?
**A.** The IC50 was < 100 µM.

**Q.** Which IC50 does the source give for B26 here?
**A.** The IC50 was < 100 µM.

**Q.** Which IC50 does the source give for B27 here?
**A.** The IC50 was < 100 µM.

**Q.** Which IC50 does the source give for B28 here?
**A.** The IC50 was < 100 µM.

**Q.** B29 was tested. Which IC50 did it give?
**A.** Its IC50 is < 100 µM.

**Q.** With B30 as the binder, how does the IC50 read?
**A.** The IC50 was < 100 µM.

**Q.** For B31, which IC50 is on record?
**A.** Its IC50 is < 100 µM.

**Q.** B32 was tested. Which IC50 did it give?
**A.** The IC50 was < 100 µM.

**Q.** How did the IC50 turn out when B33 was run?
**A.** The IC50 was < 100 µM.

**Q.** Which IC50 does the source give for B34 here?
**A.** Its IC50 is < 100 µM.

**Q.** Which IC50 does the source give for B35 here?
**A.** Its IC50 is < 100 µM.

**Q.** How did the IC50 turn out when B36 was run?
**A.** Its IC50 is < 100 µM.

**Q.** Which IC50 does the source give for B37 here?
**A.** Its IC50 is < 100 µM.

**Q.** With B38 as the binder, how does the IC50 read?
**A.** Its IC50 is < 100 µM.

**Q.** Which IC50 does the source give for B39 here?
**A.** The IC50 was < 100 µM.

**Q.** Which IC50 does the source give for B40 here?
**A.** The IC50 was < 100 µM.

**Q.** Which IC50 does the source give for B41 here?
**A.** Its IC50 is < 100 µM.

**Q.** Which IC50 does the source give for B42 here?
**A.** The IC50 was < 100 µM.

**Q.** How did the IC50 turn out when B43 was run?
**A.** Its IC50 is < 100 µM.

**Q.** B44 was tested. Which IC50 did it give?
**A.** The IC50 was < 100 µM.

**Q.** Which IC50 does the source give for B45 here?
**A.** Its IC50 is < 100 µM.

**Q.** For B46, which IC50 is on record?
**A.** The IC50 was < 100 µM.

**Q.** B47 was tested. Which IC50 did it give?
**A.** Its IC50 is < 100 µM.

**Q.** For B48, which IC50 is on record?
**A.** Its IC50 is < 100 µM.
